Test results published in IntAct's records for PubMed 24970085.

B1: Lysosome-associated membrane glycoprotein 1 (Homo sapiens), P11279 (parent)
chain: MAAPGSARRPLLLLLLLLLLGLMHCASAAMFMVKNGNGTACIMANFSAAFSVNYDTKSGPKNMTFDLPSDATVVLNRSSCGKENTSDPSLVIAFGRGHTLTLNFTRNATRYSVQLMSFVYNLSDTHLFPNASSKEIKTVESITDIRADIDKKYRCVSGTQVHMNNVTVTLHDATIQAYLSNSSFSRGETRCEQDRPSPTTAPPAPPSPSPSPVPKSPSVDKYNVSGTNGTCLLASMGLQLNLTYERKDNTTVTRLLNINPNKTSASGSCGAHLVTLELHSEGTTVLLFQFGMNASSSRFFLQGIQLNTILPDARDPAFKAANGSLRALQATVGNSYKCNAEEHVRVTKAFSVNIFKVWVQAFKVEGGQFGSVEECLLDENSMLIPIAVGGALAGLVLIVLIAYLVGRKRSHAGYQTI

Variants of: B1
Conditions: with glyc_lassj GPC

Row | Variant | effect of a mutation on the interaction
1 | MAAPGSARRPLLLLLLLLLLGLMHCASAAMFMVKNGNGTACIMANFSAAFSVNYDTKSGPKNMTFDLPSDATVVLSRSSCGKENTSDPSLVIAFGRGHTLTLNFTRNATRYSVQLMSFVYNLSDTHLFPNASSKEIKTVESITDIRADIDKKYRCVSGTQVHMNNVTVTLHDATIQAYLSNSSFSRGETRCEQDRPSPTTAPPAPPSPSPSPVPKSPSVDKYNVSGTNGTCLLASMGLQLNLTYERKDNTTVTRLLNINPNKTSASGSCGAHLVTLELHSEGTTVLLFQFGMNASSSRFFLQGIQLNTILPDARDPAFKAANGSLRALQATVGNSYKCNAEEHVRVTKAFSVNIFKVWVQAFKVEGGQFGSVEECLLDENSMLIPIAVGGALAGLVLIVLIAYLVGRKRSHAGYQTI [N76S] | disrupting interaction
